# Data as given in publication PMC12781872.
# Assays:
# Experiment in all cases: FRET
# [1] = target: RNAP core beta' D359AzF Dylight488;sigmaF rpoC:D359 (Mycobacterium tuberculosis;Mycobacterium tuberculosis) (UniProt P9WGZ1+P9WGZ1+P9WGY9+P9WGY7+P9WGY5+P9WGI3)
# [2] = target: RNAP core beta' D359AzF Dylight488;sigmaE rpoC:D359 (Mycobacterium tuberculosis;Mycobacterium tuberculosis) (UniProt P9WGZ1+P9WGZ1+P9WGY9+P9WGY7+P9WGY5+P9WGG7)
# [3] = target: RNAP core beta' D359AzF Dylight488;sigmaA rpoC:D359 (Mycobacterium tuberculosis;Mycobacterium tuberculosis) (UniProt P9WGZ1+P9WGZ1+P9WGY9+P9WGY7+P9WGY5+P9WGI1)
sequence,measurement,setting,value
GTGGCCCTTGTGGGAGCGTCGGCCATAGCGGCCTCCCGGTCGGCTTGCGCTG / CAGCGCAAGCCGACCGGGAGGCCGCTATGGCCGACGCTCCCACAAGGGCCAC / UUUUUUUCCGCUAUG,Kd,[1],21.1 nM
same,Kd,[2],335 nM
same,Kd,[3],162 nM
